The assay has as its target albumin (HSA) (human, UniProt P02768 25-609). Description: shift of receptor-binding IC50 between 0.005% and 2% HSA (indirect).

This is an account of results in patent EP4799645A2 (GAN & LEE PHARMACEUTICALS CO., LTD., dated 2026).

Numbered stars: 1 amine (or outer) side, 2 acyl side, 3 side chain; on linkers, the order of the positions; unused ones are H or OH. Side chains are listed from the residue outwards. Ends that are not written are not given here. * marks the point of attachment. C22 diacid = O=C(O)CCCCCCCCCCCCCCCCCCCCC(=O)*; γGlu = O=C(O)[C@H](CCC(=O)[*:2])N[*:1]; AEEA = NCCOCCOCC(=O)O

Sequence of albumin (HSA) (P02768 25-609 limits assumed): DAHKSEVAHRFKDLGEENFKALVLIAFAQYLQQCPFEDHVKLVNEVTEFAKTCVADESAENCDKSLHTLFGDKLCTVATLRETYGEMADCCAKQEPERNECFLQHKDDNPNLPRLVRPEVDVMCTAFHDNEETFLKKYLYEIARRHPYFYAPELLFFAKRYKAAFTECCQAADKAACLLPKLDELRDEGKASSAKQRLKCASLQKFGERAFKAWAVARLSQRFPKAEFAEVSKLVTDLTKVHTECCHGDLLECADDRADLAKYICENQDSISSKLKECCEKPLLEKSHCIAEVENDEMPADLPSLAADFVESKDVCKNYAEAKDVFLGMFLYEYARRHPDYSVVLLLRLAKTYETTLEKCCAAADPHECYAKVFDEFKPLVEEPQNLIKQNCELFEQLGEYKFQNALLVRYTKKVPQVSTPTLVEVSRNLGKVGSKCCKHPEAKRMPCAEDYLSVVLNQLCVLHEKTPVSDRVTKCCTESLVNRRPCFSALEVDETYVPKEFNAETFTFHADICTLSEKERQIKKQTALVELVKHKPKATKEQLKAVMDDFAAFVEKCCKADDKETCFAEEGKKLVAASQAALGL

Turning to HGEGTFTSDVSSYLEGQAAK([AEEA-AEEA-γGlu-C22 diacid])EFIAWLVRGRG (also called Compound 10), the binding result is “binds”.
